{"source": "patent US20220251204A1", "about": "(AstraZeneca / MedImmune, published 2022)", "key": {"[1]": {"molecular_target": "T1, human CTLA-4 expressed on cells (human, UniProt P16410 36-223)", "T1 construct": "also called CTLA-4 reporter cells", "T1 sequence": "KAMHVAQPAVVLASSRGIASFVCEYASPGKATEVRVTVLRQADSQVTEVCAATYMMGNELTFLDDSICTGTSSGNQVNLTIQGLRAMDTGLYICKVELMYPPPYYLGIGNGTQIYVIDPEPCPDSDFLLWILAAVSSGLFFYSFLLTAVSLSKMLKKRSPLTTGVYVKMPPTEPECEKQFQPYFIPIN", "assay": "flow cytometry receptor occupancy, CHO cells expressing PD-1:CTLA-4 (10:1); free CTLA-4 detected with labeled anti-CTLA-4 mAb"}, "[2]": {"molecular_target": "T1, human CTLA-4 expressed on cells", "assay": "receptor occupancy on CHO cells expressing excess PD-1, flow cytometry"}, "[3]": {"molecular_target": "T2, human PD-1 expressed on cells (human, UniProt Q15116 25-288)", "T2 construct": "also called CHO cells overexpressing human PD1", "T2 sequence (Q15116 25-288 limits assumed)": "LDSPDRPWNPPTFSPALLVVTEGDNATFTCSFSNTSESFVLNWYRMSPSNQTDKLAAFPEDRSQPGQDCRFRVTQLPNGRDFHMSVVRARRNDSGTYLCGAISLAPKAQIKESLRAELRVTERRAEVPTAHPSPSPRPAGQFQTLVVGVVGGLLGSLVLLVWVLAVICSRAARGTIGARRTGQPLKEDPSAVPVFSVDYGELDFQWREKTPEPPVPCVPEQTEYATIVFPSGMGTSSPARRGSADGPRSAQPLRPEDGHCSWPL", "assay": "flow cytometry receptor occupancy, CHO cells expressing PD-1:CTLA-4 (10:1); free PD-1 detected with labeled anti-PD-1 mAb"}, "[4]": {"molecular_target": "T1, human CTLA-4 expressed on cells", "assay": "flow cytometry receptor occupancy, CHO cells expressing PD-1:CTLA-4 (10:1); free CTLA-4 detected with labeled anti-CTLA-4 mAb", "remark": "listed apart in the source"}, "[5]": {"molecular_target": "T1, human CTLA-4 expressed on cells", "assay": "flow cytometry receptor occupancy, CHO cells expressing PD-1:CTLA-4 (40:1); free CTLA-4 detected with labeled anti-CTLA-4 mAb"}, "[6]": {"molecular_target": "T2, human PD-1 expressed on cells", "assay": "flow cytometry receptor occupancy, CHO cells expressing PD-1:CTLA-4 (40:1); free PD-1 detected with labeled anti-PD-1 mAb"}, "[7]": {"molecular_target": "T1, human CTLA-4 expressed on cells", "assay": "flow cytometry receptor occupancy, CHO cells expressing CTLA-4 only; free CTLA-4 detected with labeled anti-CTLA-4 mAb"}, "[8]": {"molecular_target": "T3, human CTLA-4 antigen (soluble) (human, UniProt P16410 36-161)", "T3 construct": "also called hu CTLA4; soluble CTLA-4 antigen", "T3 sequence": "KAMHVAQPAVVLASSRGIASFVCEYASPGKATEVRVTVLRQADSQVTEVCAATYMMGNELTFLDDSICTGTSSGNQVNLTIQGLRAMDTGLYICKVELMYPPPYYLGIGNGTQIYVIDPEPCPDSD", "assay": "SPR, BIAcore T200; antibody captured on mouse anti-huIgG-Fab, antigen injected"}, "mouse PD-1": {"molecular_target": "T4, mouse PD-1 (mouse, UniProt Q02242 25-167)", "T4 construct": "also called mu PD1", "T4 sequence (looked up)": "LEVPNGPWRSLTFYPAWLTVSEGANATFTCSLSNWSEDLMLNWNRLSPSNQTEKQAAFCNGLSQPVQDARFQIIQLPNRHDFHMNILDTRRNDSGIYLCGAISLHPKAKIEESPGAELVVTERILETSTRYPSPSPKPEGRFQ", "assay": "SPR, BIAcore T200; antibody captured on mouse anti-huIgG-Fab, antigen injected"}, "cynomolgus PD-1": {"molecular_target": "T5, cynomolgus PD-1 (cynomolgus, UniProt B0LAJ3 25-170)", "T5 construct": "also called cyno PD1", "T5 sequence (B0LAJ3 entry or part of it limits assumed)": "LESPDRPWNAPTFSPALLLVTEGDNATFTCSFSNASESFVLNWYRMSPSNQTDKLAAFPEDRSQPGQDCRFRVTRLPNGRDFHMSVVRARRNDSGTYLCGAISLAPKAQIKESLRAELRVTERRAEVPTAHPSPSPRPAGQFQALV", "assay": "SPR, BIAcore T200; antibody captured on mouse anti-huIgG-Fab, antigen injected"}, "[9]": {"molecular_target": "T6, human PD-1 antigen (soluble) (human, UniProt Q15116 25-170)", "T6 construct": "also called hu PD1; Biotinylated human PD-1", "T6 sequence (Q15116 25-170 limits assumed)": "as the sequence (B0LAJ3 entry or part of it limits assumed) above, with E2D, A10P, L19V, A35T, R75Q, A144T counted along it", "assay": "SPR, BIAcore T200; antibody captured on mouse anti-huIgG-Fab, antigen injected"}, "cynomolgus CTLA-4": {"molecular_target": "T7, cynomolgus CTLA-4 (cynomolgus, UniProt G7PL88 36-161)", "T7 construct": "also called cyno CTLA4", "T7 sequence": "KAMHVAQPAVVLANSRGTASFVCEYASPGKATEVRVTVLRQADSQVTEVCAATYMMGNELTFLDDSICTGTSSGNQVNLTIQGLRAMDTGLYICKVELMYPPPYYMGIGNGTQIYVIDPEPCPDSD", "assay": "SPR, BIAcore T200; antibody captured on mouse anti-huIgG-Fab, antigen injected"}, "[10]": {"molecular_target": "T1, human CTLA-4 expressed on cells", "assay": "cell-based or functional assay"}, "[11]": {"molecular_target": "T2, human PD-1 expressed on cells", "assay": "cell-based or functional assay"}, "[12]": {"molecular_target": "T1, human CTLA-4 expressed on cells", "assay": "flow cytometry, CHO cells expressing CTLA-4 only"}, "[13]": {"molecular_target": "T2, human PD-1 expressed on cells", "assay": "flow cytometry, CHO cells expressing PD-1 only"}, "[14]": {"molecular_target": "T1, human CTLA-4 expressed on cells", "assay": "flow cytometry receptor occupancy, CHO cells expressing PD-1:CTLA-4 (40:1); free CTLA-4 detected with labeled anti-CTLA-4 mAb", "remark": "listed apart in the source"}, "[15]": {"molecular_target": "T1, human CTLA-4 expressed on cells", "assay": "receptor occupancy on CHO cells, flow cytometry"}, "[16]": {"molecular_target": "T8, His-tagged PD-L1-Fc (human recombinant protein, R&D Systems) (human, UniProt Q9NZQ7 19-238)", "T8 construct": "also called PD-L1-His", "T8 sequence (Q9NZQ7 19-238 limits assumed)": "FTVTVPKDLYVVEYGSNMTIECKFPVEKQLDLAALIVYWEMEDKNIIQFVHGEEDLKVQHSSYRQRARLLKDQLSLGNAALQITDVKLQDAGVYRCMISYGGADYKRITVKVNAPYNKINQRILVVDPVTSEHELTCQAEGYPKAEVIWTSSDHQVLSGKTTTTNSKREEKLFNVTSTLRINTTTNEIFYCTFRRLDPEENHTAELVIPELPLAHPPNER", "assay": "Octet: PDL1-HiS-Fc loaded anti-HiS sensor, 5ug/mL rhOx40-Fc association"}, "[17]": {"molecular_target": "T2, human PD-1 expressed on cells", "assay": "flow cytometry receptor occupancy, CHO cells expressing PD-1:CTLA-4 (10:1); free PD-1 detected with labeled anti-PD-1 mAb", "remark": "listed apart in the source"}, "[18]": {"molecular_target": "T1, human CTLA-4 expressed on cells", "assay": "flow cytometry receptor occupancy, CHO cells expressing PD-1:CTLA-4 (40:1); free CTLA-4 detected with labeled anti-CTLA-4 mAb", "remark": "listed apart in the source"}, "[19]": {"molecular_target": "T1, human CTLA-4 expressed on cells", "assay": "flow cytometry receptor occupancy, CHO cells expressing PD-1:CTLA-4 (40:1), combination of the anti-PD-1 and anti-CTLA-4 mAbs; free CTLA-4 detected with labeled anti-CTLA-4 mAb; label stands beside the dark-diamond curve, which crosses 50 % at about 2.5 nM"}, "[20]": {"molecular_target": "T1, human CTLA-4 expressed on cells", "assay": "flow cytometry receptor occupancy, CHO cells expressing PD-1:CTLA-4 (10:1); free CTLA-4 detected with labeled anti-CTLA-4 mAb", "remark": "listed apart in the source"}}}
{"binder": "PD-1/CTLA-4 DuetMab (bispecific antibody, human IgG1, kappa, lambda, also called DuetMab PD-1/CTLA-4; PD-1/CTLA-4 DuetMab bispecific antibody; copies: 1 + 1 + 1 + 1) heavy 1: EVQLVESGGGLVQPGGSLRLSCAASGFTFSDYGMHWVRQAPGKGLEWVAYISSGSYTIYSADSVKGRFTISRDNAKNSLYLQMNSLRAEDTAVYYCARRAPNSFYEYYFDYWGQGTTVTVSSASTKGPSVFPLAPSSKSTSGGTAALGCLVKDYFPEPVTVSWNSGALTSGVHTFPAVLQSSGLYSLSSVVTVPSSSLGTQTYICNVNHKPSNTKVDKRVEPKSCDKTHTCPPCPAPEFEGGPSVFLFPPKPKDTLMISRTPEVTCVVVDVSHEDPEVKFNWYVDGVEVHNAKTKPREEQYNSTYRVVSVLTVLHQDWLNGKEYKCKVSNKALPASIEKTISKAKGQPREPQVCTLPPSREEMTKNQVSLSCAVKGFYPSDIAVEWESNGQPENNYKTTPPVLDSDGSFFLVSKLTVDKSRWQQGNVFSCSVMHEALHNHYTQKSLSLSPGK light 1: QIVLTQSPATLSLSPGERATLSCSASSKHTNLYWSRHMYWYQQKPGQAPRLLIYLTSNRATGIPARFSGSGSGTDFTLTISSLEPEDFAVYYCQQWSSNPFTFGQGTKLEIKRTVAAPSVFIFPPSDEQLKSGTASVVCLLNNFYPREAKVQWKVDNALQSGNSQESVTEQDSKDSTYSLSSTLTLSKADYEKHKVYACEVTHQGLSSPVTKSFNRGEC heavy 2: not shown light 2: DIQMTQSPSSLSASVGDRVTITCRASQSINSYLDWYQQKPGKAPKLLIYAASSLQSGVPSRFSGSGSGTDFTLTISSLQPEDFATYYCQQYYSTPFTFGPGTKVEIKGQPKAAPSVTLFPPCSEELQANKATLVCLISDFYPGAVTVAWKADSSPVKAGVETTTPSKQSNNKYAASSYLSLTPEQWKSHRSYSCQVTHEGSTVEKTVAPTEVS", "values": [{"measurement": "IC50", "setting": "[1]", "result": 0.38, "unit": "nM"}, {"measurement": "fold lower concentration to saturate CTLA-4, against a combination of the monoclonal antibodies", "setting": "[2]", "result": "~250", "unit": "fold"}, {"measurement": "IC50", "setting": "[3]", "result": 12.2, "unit": "nM"}, {"measurement": "IC50", "setting": "[4]", "result": 0.38, "unit": "nM"}, {"measurement": "IC50", "setting": "[5]", "result": 0.01, "unit": "nM"}, {"measurement": "IC50", "setting": "[6]", "result": 14.4, "unit": "nM"}, {"measurement": "IC50", "setting": "[7]", "result": 4.6, "unit": "nM"}, {"measurement": "Kd", "setting": "[8]", "result": 0.62, "unit": "nM"}, {"measurement": "koff", "setting": "[8]", "result": 0.000421, "unit": "s⁻¹"}, {"measurement": "kon", "setting": "[8]", "result": 684000, "unit": "M⁻¹ s⁻¹"}, {"measurement": "Kd", "setting": "mouse PD-1", "result": 496, "unit": "nM"}, {"measurement": "koff", "setting": "mouse PD-1", "result": 0.0693, "unit": "s⁻¹"}, {"measurement": "kon", "setting": "mouse PD-1", "result": 140000, "unit": "M⁻¹ s⁻¹"}, {"measurement": "Kd", "setting": "cynomolgus PD-1", "result": 0.44, "unit": "nM"}, {"measurement": "koff", "setting": "cynomolgus PD-1", "result": 0.000215, "unit": "s⁻¹"}, {"measurement": "kon", "setting": "cynomolgus PD-1", "result": 490000, "unit": "M⁻¹ s⁻¹"}, {"measurement": "Kd", "setting": "[9]", "result": 0.81, "unit": "nM"}, {"measurement": "koff", "setting": "[9]", "result": 0.000236, "unit": "s⁻¹"}, {"measurement": "kon", "setting": "[9]", "result": 295000, "unit": "M⁻¹ s⁻¹"}, {"measurement": "Kd", "setting": "cynomolgus CTLA-4", "result": 0.55, "unit": "nM"}, {"measurement": "koff", "setting": "cynomolgus CTLA-4", "result": 0.000634, "unit": "s⁻¹"}, {"measurement": "kon", "setting": "cynomolgus CTLA-4", "result": "1.14e+06", "unit": "M⁻¹ s⁻¹"}, {"measurement": "fold decrease in CTLA-4 reporter gene assay, potency", "setting": "[10]", "result": "~16", "unit": "fold"}, {"measurement": "fold decrease in PD-1 reporter gene assay, potency", "setting": "[11]", "result": "~9", "unit": "fold"}, {"measurement": "EC50 (read off the curve)", "setting": "[12]", "result": "~4", "unit": "nM"}, {"measurement": "EC50 (read off the curve)", "setting": "[13]", "result": "~4", "unit": "nM"}, {"measurement": "IC50", "setting": "[14]", "result": 0.01, "unit": "nM"}, {"measurement": "fold lower concentration to saturate CTLA-4, against cells expressing only CTLA-4", "setting": "[15]", "result": "~500", "unit": "fold"}]}
{"binder": "hOX40-Fc (human recombinant protein, R&D Systems) (Fc fusion, also called human OX40-Fc; not shown: Fc part of the bought fusion) LHCVGDTYPSNDRCCHECRPGNGMVSRCSRSQNTVCRPCGPGFYNDVVSSKPCKPCTWCNLRSGSERKQLCTATQDTVCRCRAGTQPLDSYKPGVDCAPCPPGHFSPGDNQACKPWTNCTLAGKHTLQPASNSSDAICEDRDPPATQPQETQGPPARPITVQPTEAWPRTSQGPSTRPVEVPGGRAVA", "values": [{"measurement": "binding result", "setting": "[16]", "result": "no binding (tested: 5ug/mL)"}]}
{"binder": "Anti-CTLA-4 IgG (antibody, V domains shown, also called tremelimumab; MEDI1123) VH: QVQLVESGGGVVQPGRSLRLSCAASGFTFSSYGMHWVRQAPGKGLEWVAVIWYDGSNKYYADSVKGRFTISRDNSKNTLYLQMNSLRAEDTAVYYCARDPRGATLYYYYYGMDVWGQGTTVTVSS VL: DIQMTQSPSSLSASVGDRVTITCRASQSINSYLDWYQQKPGKAPKLLIYAASSLQSGVPSRFSGSGSGTDFTLTISSLQPEDFATYYCQQYYSTPFTFGPGTKVEIK", "values": [{"measurement": "binding result", "setting": "[17]", "result": "no binding (tested: about 200 nM)"}, {"measurement": "IC50", "setting": "[18]", "result": 4.4, "unit": "nM"}, {"measurement": "Kd", "setting": "[8]", "result": 0.48, "unit": "nM"}, {"measurement": "koff", "setting": "[8]", "result": 0.000304, "unit": "s⁻¹"}, {"measurement": "kon", "setting": "[8]", "result": 633000, "unit": "M⁻¹ s⁻¹"}, {"measurement": "Kd", "setting": "cynomolgus CTLA-4", "result": 0.59, "unit": "nM"}, {"measurement": "koff", "setting": "cynomolgus CTLA-4", "result": 0.000674, "unit": "s⁻¹"}, {"measurement": "kon", "setting": "cynomolgus CTLA-4", "result": "1.15e+06", "unit": "M⁻¹ s⁻¹"}, {"measurement": "IC50", "setting": "[19]", "result": 2.4, "unit": "nM"}, {"measurement": "IC50", "setting": "[20]", "result": 5, "unit": "nM"}]}
